Three molecules from article PMC7048817, “Structure of the processive human Pol δ holoenzyme” (Nature Communications, 2020) can be followed below.

Broadly, the stoichiometry N is a count of units in the complex or per binding partner.

For data set [1], the target named is T1, p125, catalytic subunit of human Pol δ (human, UniProt P28340 1-1107).
T1 construct: DNA polymerase delta catalytic subunit p125, human; Stood in the assay as a subunit of the Pol δ heterotetramer; source: Sf9 insect cells, coexpressed with p50, p66 and p12 (MultiBac baculovirus), purified as the heterotetramer
T1 sequence: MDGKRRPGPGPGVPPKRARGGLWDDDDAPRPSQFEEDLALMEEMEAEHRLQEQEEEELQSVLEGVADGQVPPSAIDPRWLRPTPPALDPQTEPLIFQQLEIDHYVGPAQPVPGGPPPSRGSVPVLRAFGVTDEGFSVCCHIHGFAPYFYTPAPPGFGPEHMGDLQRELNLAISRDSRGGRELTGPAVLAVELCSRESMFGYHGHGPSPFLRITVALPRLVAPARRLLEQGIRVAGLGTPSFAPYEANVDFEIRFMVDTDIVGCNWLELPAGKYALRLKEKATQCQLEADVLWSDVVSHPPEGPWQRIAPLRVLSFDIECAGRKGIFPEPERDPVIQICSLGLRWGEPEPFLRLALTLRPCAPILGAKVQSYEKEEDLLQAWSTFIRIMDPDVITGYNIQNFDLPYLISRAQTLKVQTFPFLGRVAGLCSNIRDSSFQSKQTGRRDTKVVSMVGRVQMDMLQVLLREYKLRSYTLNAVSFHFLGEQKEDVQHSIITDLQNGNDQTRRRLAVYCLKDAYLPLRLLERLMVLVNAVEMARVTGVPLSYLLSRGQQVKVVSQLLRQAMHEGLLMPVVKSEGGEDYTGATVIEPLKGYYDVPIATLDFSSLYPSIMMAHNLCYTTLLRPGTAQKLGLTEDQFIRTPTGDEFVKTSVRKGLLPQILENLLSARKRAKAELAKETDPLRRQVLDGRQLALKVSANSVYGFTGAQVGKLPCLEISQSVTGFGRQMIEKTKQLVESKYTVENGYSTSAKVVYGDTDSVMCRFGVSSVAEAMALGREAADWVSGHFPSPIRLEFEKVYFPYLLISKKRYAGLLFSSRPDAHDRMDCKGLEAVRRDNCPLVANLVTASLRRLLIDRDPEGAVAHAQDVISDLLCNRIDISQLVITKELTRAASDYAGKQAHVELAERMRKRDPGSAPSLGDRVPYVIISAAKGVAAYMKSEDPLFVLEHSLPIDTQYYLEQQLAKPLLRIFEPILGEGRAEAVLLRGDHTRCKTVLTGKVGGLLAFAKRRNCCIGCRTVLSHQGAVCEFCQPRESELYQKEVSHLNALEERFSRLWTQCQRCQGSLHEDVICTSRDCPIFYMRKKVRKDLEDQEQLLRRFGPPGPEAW
Nature of the data set: cryo-EM structure; Pol δ–DNA–PCNA–dTTP complex with 25/38 primer/template DNA (3' dideoxy terminator); 25 mM HEPES-KOH pH 7.5, 100 mM potassium acetate, 10 mM calcium chloride, 0.02% NP-40, 0.4 mM biotin, 1 mM DTT; 4.1 Å map from the sample frozen after mixing (conformers at 4.3, 4.9, 8.1 Å), 3.0 Å map from the gel-filtered sample in which FEN1 is invisible. Conditions: both partners purified.

Data set [2] deals with T2, p50, regulatory subunit of human Pol δ (human, UniProt P49005 1-469).
T2 construct: DNA polymerase delta subunit p50 (B-subunit), human; Stood in the assay as a subunit of the Pol δ heterotetramer; also called B-subunit; source: Sf9 insect cells, coexpressed with p125, p66 and p12 (MultiBac baculovirus), purified as the heterotetramer
Described as above. Conditions: both partners purified.

Data set [3] deals with the molecule itself. The data set is described as follows: SEC; HiLoad 16/600 Superdex 200 pg in PCNA storage buffer; 2 mg of each PCNA form in 250 μL, 1 mL/min; markers carbonic anhydrase (27 kDa) and conalbumin (75 kDa); monomers to trimer.

T2 sequence (P49005 whole entry, stated change not applied): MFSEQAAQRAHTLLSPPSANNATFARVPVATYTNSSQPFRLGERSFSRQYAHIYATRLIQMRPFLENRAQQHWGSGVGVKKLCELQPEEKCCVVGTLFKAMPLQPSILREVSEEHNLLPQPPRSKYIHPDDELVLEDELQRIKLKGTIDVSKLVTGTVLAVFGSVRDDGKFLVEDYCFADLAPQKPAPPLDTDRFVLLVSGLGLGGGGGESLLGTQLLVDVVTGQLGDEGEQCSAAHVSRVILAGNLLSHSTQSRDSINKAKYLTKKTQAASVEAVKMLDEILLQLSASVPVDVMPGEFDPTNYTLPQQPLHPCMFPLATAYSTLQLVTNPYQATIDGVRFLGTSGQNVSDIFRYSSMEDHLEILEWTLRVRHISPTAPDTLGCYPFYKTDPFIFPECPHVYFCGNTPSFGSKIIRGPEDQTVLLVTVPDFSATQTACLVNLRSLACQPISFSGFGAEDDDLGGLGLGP

B1: p12, regulatory subunit of human Pol δ (natural protein)
chain: GRKRLITDSYPVVKRREGPAGHSKGELAPELGEEPQPRDEEEAELELLRQFDLAWQYGPCTGITRLQRWCRAKQMGLEPPPEVWQVLKTHPGDPRFQCSLWHLYPL
notes: Stood in the assay as a subunit of the Pol δ heterotetramer; source: Sf9 insect cells, coexpressed with p125, p50 and p66 (MultiBac baculovirus), purified as the heterotetramer
Turning to B1, the binding result in data set [1] and in data set [2] was “binds” throughout.

B2: p66, regulatory subunit of human Pol δ (natural protein)
chain: ADQLYLENIDEFVTDQNKIVTYKWLSYTLGVHVNQAKQMLYDYVERKRKENSGAQLHVTYLVSGSLIQNGHSCHKVAVVREDKLEAVKSKLAVTASIHVYSIQKAMLKDSGPLFNTDYDILKSNLQNCSKFSAIQCAAAVPRAPAESSSSSKKFEQSHLHMSSETQANNELTTNGHGPPASKQVSQQPKGIMGMFASKAAAKTQETNKETKTEAKEVTNASAAGNKAPGKGNMMSNFFGKAAMNKFKVNLDSEQAVKEEKIVEQPTVSVTEPKLATPAGLKKSSKKAEPVKVLQKEKKRGKRVALSDDETKETENMRKKRRRIKLPESDSSEDEVFPDSPGAYEAESPSPPPPPSPPLEPVPKTEPEPPSVKSSSGENKRKRKRVLKSKTYLDGEGCIVTEKVYESESCTDSEEELNMKTSSVHRPPAMTVKKEPREERKGPKKGTAALGKANRQVSITGFFQRK
notes: DNA polymerase delta subunit p66, human; last visible residue in the map is Ala144; Stood in the assay as a subunit of the Pol δ heterotetramer; also called p66N (its visible N-terminal part); source: Sf9 insect cells, coexpressed with p125, p50 and p12 (MultiBac baculovirus), purified as the heterotetramer
For B2, the binding result in data set [2] is listed as “binds”.

B3: DLDV-PCNA (PCNA D120A, L121A, D122A, V123E) (natural protein, human, UniProt P12004 1-261, looked up)
chain: MFEARLVQGSILKKVLEALKDLINEACWDISSSGVNLQSMDSSHVSLVQLTLRSEGFDTYRCDRNLAMGVNLTSMSKILKCAGNEDIITLRAEDNADTLALVFEAPNQEKVSDYEMKLMAAAEEQLGIPEQEYSCVVKMPSGEFARICRDLSHIGDAVVISCAKDGVKFSASGELGNGNIKLSQTSNVDKEEEAVTIEMNEPVQLTFALRYLNFFTKATPLSSTVTLSMSADVPLVVEYKIADMGHLKYYLAPKIEDEEGS
notes: proliferating cell nuclear antigen, human, full length, with D120A, L121A, D122A and V123E; source: E. coli BL21 (DE3), purified (HisTrap, HiTrap Q, Superdex 200)
As for B3, in data set [3], the “stoichiometry N” value came out at 3.
